Measured values published in publication PMC12147029, “Rare SNP in the HELB gene interferes with RPA interaction and cellular function of HELB”.

Tests used:
HELB D506G = HELB D506G (Homo sapiens, UniProt Q8NG08 1-1087, D506G); test: fluorescence anisotropy; 10 mM Mg(OAc)2, no nucleotide; 25 mM HEPES pH 7.5, 10 mM KOAc, 10 mM Mg(OAc)2, 0.1 mM EDTA, 2 mM beta-mercaptoethanol, 0.1 mg/ml BSA, 1 nM DNA, 30 min, room temperature; conditions: protein: recombinant; tags: none (His-SUMO cleaved by Ulp1); label: 3'-6-carboxyfluorescein; single strand
HELB WT = HELB WT (Homo sapiens, UniProt Q8NG08 1-1087); test: as above; conditions: protein: recombinant; tags: none (His-SUMO cleaved by Ulp1); label: 3'-6-carboxyfluorescein; single strand
HELB WT, sequence (Q8NG08 whole entry): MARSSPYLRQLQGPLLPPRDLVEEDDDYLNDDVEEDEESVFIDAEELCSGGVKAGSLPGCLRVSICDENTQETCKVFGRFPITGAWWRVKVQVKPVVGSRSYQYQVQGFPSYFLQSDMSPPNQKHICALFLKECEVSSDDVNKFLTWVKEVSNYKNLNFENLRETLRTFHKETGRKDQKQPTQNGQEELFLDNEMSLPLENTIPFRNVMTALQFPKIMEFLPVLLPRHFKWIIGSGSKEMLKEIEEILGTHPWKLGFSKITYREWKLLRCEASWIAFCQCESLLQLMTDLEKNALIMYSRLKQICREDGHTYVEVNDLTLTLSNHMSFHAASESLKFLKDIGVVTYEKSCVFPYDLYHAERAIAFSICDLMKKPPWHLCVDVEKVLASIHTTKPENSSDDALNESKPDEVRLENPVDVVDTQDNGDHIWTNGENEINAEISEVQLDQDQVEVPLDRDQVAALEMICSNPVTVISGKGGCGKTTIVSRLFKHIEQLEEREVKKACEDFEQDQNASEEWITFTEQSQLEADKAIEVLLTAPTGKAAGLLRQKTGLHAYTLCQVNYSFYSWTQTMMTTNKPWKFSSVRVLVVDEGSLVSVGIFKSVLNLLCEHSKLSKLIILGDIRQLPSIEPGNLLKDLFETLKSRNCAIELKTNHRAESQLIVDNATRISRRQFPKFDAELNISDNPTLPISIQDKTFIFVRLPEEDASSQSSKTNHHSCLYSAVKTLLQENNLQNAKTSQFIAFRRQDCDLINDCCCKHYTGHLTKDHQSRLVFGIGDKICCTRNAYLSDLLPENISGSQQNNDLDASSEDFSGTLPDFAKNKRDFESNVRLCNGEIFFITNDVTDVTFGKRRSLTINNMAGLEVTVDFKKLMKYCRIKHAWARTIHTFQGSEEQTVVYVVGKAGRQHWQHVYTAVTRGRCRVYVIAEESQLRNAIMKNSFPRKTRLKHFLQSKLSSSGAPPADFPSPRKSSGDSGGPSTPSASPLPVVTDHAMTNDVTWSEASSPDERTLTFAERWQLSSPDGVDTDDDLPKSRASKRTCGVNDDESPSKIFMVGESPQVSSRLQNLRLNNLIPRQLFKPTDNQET

HELB D506G, sequence (Q8NG08 whole entry D506G): as the sequence (Q8NG08 whole entry) above, with D506G counted along it

B1: 3'-FAM-T16 (ssDNA)
DNA: TTTTTTTTTTTTTTTT
B1 was tested, and the Kd (HELB D506G) was 2.2 ± 0.4 nM and the Kd (HELB WT) was 3.4 ± 0.2 nM.
